Substitutions are numbered along the chain they refer to. In names and notes the source's numbering stands.
Legend:
[1] = target: T1, cynomolgus monkey FcγRIIIaS extracellular domain with C-terminal His-tag (cynomolgus monkey, UniProt A3RFZ7 21-206 (rhesus entry)); experiment: SPR (BIACORE), antibody captured, FcgR analyte
T1 construct: also called cyno FcgRIIIaS; cynoFcγRIIIaS; not shown: His-tag added to the C-terminus

[2] = target: T1, cynomolgus monkey FcγRIIIaS …; experiment: SPR (BIACORE); KD of SG1 / KD of variant
Method: (§1) The kinetic analysis of interactions between these antibodies and FcγR was carried out using BIACORE® T200 or BIACORE® 4000 (GE Healthcare). HBS-EP+ (GE Healthcare) was used as the running buffer, and the measurement temperature was set to 25° C. […] After the measurement, the antibody captured on the chip was washed off by allowing reaction with 10 mM glycine-HCl, pH1.5 and 25 mM NaOH so that the chip was regenerated and used repeatedly. The sensorgrams obtained as measurement results were analyzed by the 1:1 Langmuir binding model using the BIACORE® Evaluation Software to calculate the binding rate constant ka (L/mol/s) and dissociation rate constant kd (1/s), and the dissociation constant KD (mol/L) was calculated from these values. […] Regarding such interactions, KD values were calculated using the following 1:1 binding model described in BIACORE® T100 Software Handbook BR1006-48 Edition AE.

[3] = target: T2, cynomolgus monkey FcγRIIIaS extracellular domain with C-terminal His-tag (cynomolgus monkey, UniProt Q8SPW2 21-206 at identity 1.00)); experiment: SPR, KD(parent SG1)/KD(variant)
T2 construct: also called cyno FcgRIIIaS; cynoFcγRIIIaS
T2 chain: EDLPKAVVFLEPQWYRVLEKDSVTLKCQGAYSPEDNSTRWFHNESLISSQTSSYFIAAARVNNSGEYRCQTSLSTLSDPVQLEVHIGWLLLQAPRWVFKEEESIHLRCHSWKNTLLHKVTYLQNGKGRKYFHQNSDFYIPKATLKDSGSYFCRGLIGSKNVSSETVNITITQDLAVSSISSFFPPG

[4] = target: T3, human FcγRIIaR extracellular domain with C-terminal His-tag (human, UniProt P12318 34-217); experiment: SPR (BIACORE), antibody captured, FcgR analyte
T3 construct: also called human FcgRIIaR; FcγRIIa type R; not shown: His-tag added to the C-terminus
T3 chain: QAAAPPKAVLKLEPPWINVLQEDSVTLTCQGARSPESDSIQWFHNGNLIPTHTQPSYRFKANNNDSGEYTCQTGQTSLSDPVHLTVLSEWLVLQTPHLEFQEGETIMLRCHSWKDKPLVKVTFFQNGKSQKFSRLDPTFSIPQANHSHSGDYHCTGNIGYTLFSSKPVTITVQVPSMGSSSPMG

[5] = target: T4, cynomolgus monkey FcγRIIa3 extracellular domain with C-terminal His-tag (cynomolgus monkey); experiment: SPR (BIACORE), antibody captured, FcgR analyte
T4 construct: also called cyno FcgRIIa3; cynoFcγRIIa3; not shown: His-tag added to the C-terminus
T4 chain: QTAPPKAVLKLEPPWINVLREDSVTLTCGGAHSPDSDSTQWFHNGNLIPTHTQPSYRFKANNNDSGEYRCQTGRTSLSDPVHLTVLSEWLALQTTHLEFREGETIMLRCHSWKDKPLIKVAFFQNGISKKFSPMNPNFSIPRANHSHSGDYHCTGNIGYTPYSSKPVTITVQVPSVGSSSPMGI

[6] = target: T5, human FcγRIIb extracellular domain with C-terminal His-tag (human, UniProt P31994 43-217); experiment: SPR Biacore, antibody captured, FcgR analyte
T5 construct: also called human FcgRIIb; not shown: His-tag added to C-terminus
T5 sequence: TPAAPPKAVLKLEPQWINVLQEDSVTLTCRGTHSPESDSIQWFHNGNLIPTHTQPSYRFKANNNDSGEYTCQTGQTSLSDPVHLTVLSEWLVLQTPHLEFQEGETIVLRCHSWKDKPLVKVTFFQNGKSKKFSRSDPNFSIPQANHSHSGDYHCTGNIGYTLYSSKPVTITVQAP
Method: as §1

[7] = target: T6, cynomolgus monkey FcγRIIa3 extracellular domain with C-terminal His-tag (cynomolgus monkey); experiment: SPR Biacore, antibody captured, FcgR analyte
T6 construct: also called cyno FcgRIIa3; cynoFcγRIIa3; not shown: His-tag added to C-terminus
T6 chain: T4 chain
Method: as §1

[8] = target: T7, cynomolgus monkey FcγRIIIaS extracellular domain with C-terminal His-tag (cynomolgus monkey, UniProt A3RFZ7 21-206 (rhesus entry)); experiment: SPR Biacore, antibody captured, FcgR analyte
T7 construct: also called cyno FcgRIIIaS; cynoFcγRIIIaS; not shown: His-tag added to C-terminus
Method: as §1

[9] = target: T8, human FcγRIIaH extracellular domain, His-tagged (human, UniProt P12318 34-217); experiment: SPR (Biacore), 25C, FcgR bound per antibody captured
T8 construct: also called human FcgRIIaH; FcγRIIa type H
T8 sequence: T3 chain with R134H

[10] = target: T9, human FcγRIIIaV extracellular domain, His-tagged (human, UniProt P08637 17-208); experiment: as above
T9 construct: also called human FcgRIIIaV
T9 sequence (P08637 17-208 F176V): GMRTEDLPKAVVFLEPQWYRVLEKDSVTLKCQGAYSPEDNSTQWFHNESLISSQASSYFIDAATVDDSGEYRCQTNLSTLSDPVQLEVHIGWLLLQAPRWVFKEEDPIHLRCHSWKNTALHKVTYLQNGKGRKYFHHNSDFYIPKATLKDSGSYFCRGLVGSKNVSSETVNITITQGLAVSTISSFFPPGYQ

B1: M103205H795-MY001/M103202L889-SK1 (antibody, human IgG1, kappa, name in EU numbering)
heavy: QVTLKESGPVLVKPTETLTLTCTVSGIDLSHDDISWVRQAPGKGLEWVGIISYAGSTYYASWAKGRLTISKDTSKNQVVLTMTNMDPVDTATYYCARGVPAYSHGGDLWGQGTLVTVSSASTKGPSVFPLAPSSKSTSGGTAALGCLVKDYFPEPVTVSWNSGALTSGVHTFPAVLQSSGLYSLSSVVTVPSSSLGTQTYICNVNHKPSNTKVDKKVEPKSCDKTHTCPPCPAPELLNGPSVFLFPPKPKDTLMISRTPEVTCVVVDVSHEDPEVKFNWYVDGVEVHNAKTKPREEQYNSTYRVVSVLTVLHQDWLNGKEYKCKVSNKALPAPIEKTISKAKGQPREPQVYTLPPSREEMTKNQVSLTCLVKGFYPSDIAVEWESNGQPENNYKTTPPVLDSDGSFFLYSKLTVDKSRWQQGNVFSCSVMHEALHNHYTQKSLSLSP
light: DIVMTQSPATLSLSPGERATLSCTSSQSVYHANWLSWFQQKPGQPPKLLIYWASTLAYGVPSRFSGSGSGTDFTLTISSLQPEDAATYYCAGGYGGGRYAFGQGTKVEIKRTVAAPSVFIFPPSDEQLKSGTASVVCLLNNFYPREAKVQWKVDNALQSGNSQESVTEQDSKDSTYSLSSTLTLSKADYEKHKVYACEVTHQGLSSPVTKSFNRGEC
notes: Fc variant of MS1032LO06-SG1; positions in EU numbering
[1]
  Kd: 32 µM
[2]
  KD fold (SG1 = 1): 0.05 fold

B2: MS1032LO19-SG1 (antibody, human IgG1, kappa)
heavy: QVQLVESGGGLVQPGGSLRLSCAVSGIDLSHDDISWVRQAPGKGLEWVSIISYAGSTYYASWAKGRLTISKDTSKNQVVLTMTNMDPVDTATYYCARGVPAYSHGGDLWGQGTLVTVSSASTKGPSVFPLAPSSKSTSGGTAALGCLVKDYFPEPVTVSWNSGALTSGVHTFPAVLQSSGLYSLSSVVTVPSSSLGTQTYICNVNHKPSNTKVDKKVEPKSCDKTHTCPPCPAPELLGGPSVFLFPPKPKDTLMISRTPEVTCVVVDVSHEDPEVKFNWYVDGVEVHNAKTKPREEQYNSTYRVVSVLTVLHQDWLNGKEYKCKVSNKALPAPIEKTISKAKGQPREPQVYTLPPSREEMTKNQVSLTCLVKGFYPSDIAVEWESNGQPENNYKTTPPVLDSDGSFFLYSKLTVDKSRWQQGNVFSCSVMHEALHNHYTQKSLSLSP
light: B1 light with S25T, A32E
notes: tied to rows r13/r31 by row order only; also called MS103240H795-SG1; copies: 2 + 2
[3]
  KD fold (SG1 = 1): 1 fold

B3: M103205H795-MY200/M103202L889-SK1 (antibody)
heavy: QVTLKESGPVLVKPTETLTLTCTVSGIDLSHDDISWVRQAPGKGLEWVGIISYAGSTYYASWAKGRLTISKDTSKNQVVLTMTNMDPVDTATYYCARGVPAYSHGGDLWGQGTLVTVSSASTKGPSVFPLAPSSKSTSGGTAALGCLVKDYFPEPVTVSWNSGALTSGVHTFPAVLQSSGLYSLSSVVTVPSSSLGTQTYICNVNHKPSNTKVDKKVEPKSCDKTHTCPPCPAPELLNGPVVFLFPPKPKDTLMISRTPEVTCVVVDVSEEDPEVKFNWYVDGVEVHNAKTKPREEQYNSTYRVVSVLTVLHQDWLNGKEYKCKVSNKALPKPIEKTISKAKGQPREPQVYTLPPSREEMTKNQVSLTCLVKGFYPSDIAVEWESNGQPENNYKTTPPVLDSDGSFFLYSKLTVDKSRWQQGNVFSCSVMHEALHNHYTQKSLSLSP
light: B1 light
notes: Fc variant of MS1032LO06-SG1; EU numbering; printed S2369V is probably S239V
[4]
  Kd: 2.7 µM
[1]
  Kd: 4.4 µM

B4: M103205H795-MY440/M103202L889-SK1 (antibody, human IgG1, kappa, name in EU numbering)
heavy: B3 heavy with L237W, V241S, E270D, Q297L
light: B1 light
notes: as for B1
[5]
  Kd: 4.8 µM
[4]
  Kd: 1.1 µM
[1]
  Kd: 9.3 µM

B5: MS1032LO19-SG1077 (antibody, name in EU numbering)
heavy: QVQLVESGGGLVQPGGSLRLSCAVSGIDLSHDDISWVRQAPGKGLEWVSIISYAGSTYYASWAKGRLTISKDTSKNQVVLTMTNMDPVDTATYYCARGVPAYSHGGDLWGQGTLVTVSSASTKGPSVFPLAPSSKSTSGGTAALGCLVKDYFPEPVTVSWNSGALTSGVHTFPAVLQSSGLYSLSSVVTVPSSSLGTQTYICNVNHKPSNTKVDKKVEPKSCDKTHTCPPCPAPELWNGPSVFLFPPKPKDTLMISRTPEVTCVVVDVSDEDPEVKFNWYVDGVEVHNAKTKPREELYNSTYRVVSVLTVLHRDWLNGKEYKCKVSNTALPKPIEKTISKAKGQRREPQVYTLPPSREEMTKNQVSLTCLVKGFYPSDIAVEWESNGQPENNYKTTPPVLDSDGSFFLYSKLTVDKSRWQQGNVFSCSVLHEALHAHTTRKELSLSP
light: B1 light with S25T, A32E
notes: tied to rows r16/r34 by row order only; also called MS103240H795-SG1077
[3]
  KD fold (SG1 = 1): 0.09 fold

B6: MS1032LO19-SG1081 (antibody, name in EU numbering)
heavy: B5 heavy with L430M, T438Y
light: B1 light with S25T, A32E
notes: tied to rows r19/r37 by row order only; also called MS103240H795-SG1081
[3]
  KD fold (SG1 = 1): 0.09 fold

B7: M103205H795-MY049/M103202L889-SK1 (antibody, human IgG1, kappa, name in EU numbering)
heavy: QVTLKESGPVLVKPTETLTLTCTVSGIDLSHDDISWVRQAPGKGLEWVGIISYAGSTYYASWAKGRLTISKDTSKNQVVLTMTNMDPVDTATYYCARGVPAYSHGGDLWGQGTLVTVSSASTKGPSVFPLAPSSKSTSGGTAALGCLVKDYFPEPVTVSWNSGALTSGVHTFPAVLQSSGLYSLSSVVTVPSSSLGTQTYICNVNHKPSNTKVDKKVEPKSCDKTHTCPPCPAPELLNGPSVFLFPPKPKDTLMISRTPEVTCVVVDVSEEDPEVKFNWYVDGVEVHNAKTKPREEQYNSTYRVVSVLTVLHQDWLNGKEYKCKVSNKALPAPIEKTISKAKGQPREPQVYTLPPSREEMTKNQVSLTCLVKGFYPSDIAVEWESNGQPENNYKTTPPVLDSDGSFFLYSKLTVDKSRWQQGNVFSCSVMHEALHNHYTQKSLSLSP
light: B1 light
notes: as for B1
[4]
  Kd: 7.8 µM
[1]
  Kd: 4.5 µM
[2]
  KD fold (SG1 = 1): 0.08 fold

B8: M103205H795-MY181/M103202L889-SK1 (antibody, human IgG1, kappa, name in EU numbering)
heavy: B3 heavy with V241S, K332A, P398T
light: B1 light
notes: EU numbering
[6]
  Kd: 1.4 µM
[7]
  KD fold (SG1 = 1): 1.1 fold
[8]
  KD fold (SG1 = 1): 0.09 fold
  Kd: 4.1 µM

B9: GpH7-B3 G237Y / GpL16-k0 (antibody, human IgG1, kappa)
heavy: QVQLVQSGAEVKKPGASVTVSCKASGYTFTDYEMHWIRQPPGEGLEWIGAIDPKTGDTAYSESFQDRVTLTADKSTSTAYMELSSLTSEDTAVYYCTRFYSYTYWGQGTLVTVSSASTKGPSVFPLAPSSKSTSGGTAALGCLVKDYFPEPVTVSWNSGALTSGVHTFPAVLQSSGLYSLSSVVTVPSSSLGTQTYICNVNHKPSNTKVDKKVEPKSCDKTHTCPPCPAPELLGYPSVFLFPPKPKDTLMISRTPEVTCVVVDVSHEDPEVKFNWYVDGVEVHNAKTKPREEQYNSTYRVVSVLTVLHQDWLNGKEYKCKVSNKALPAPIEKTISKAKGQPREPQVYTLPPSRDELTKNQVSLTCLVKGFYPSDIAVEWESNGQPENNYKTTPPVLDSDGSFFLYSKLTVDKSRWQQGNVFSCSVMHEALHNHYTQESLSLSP
light: DIVMTQSPLSLPVTPGEPASISCQASESLVHSNRNTYLHWYLQKPGQSPQLLIYKVSNRFSGVPDRFSGSGSGTDFTLKISRVEAEDVGVYYCSQNTHVPPTFGQGTKVEIERTVAAPSVFIFPPSDEQLKSGTASVVCLLNNFYPREAKVQWKVDNALQSGNSQESVTEQDSKDSTYSLSSTLTLSKADYEKHKVYACEVTHQGLSSPVTKSFNRGEC
notes: also called B3 variant G237Y
[9]
  Binding to human FcgRs (parent B3 = 100): 77
[10]
  Binding to human FcgRs (parent B3 = 100): 0

B10: GpH7-B3 N325I / GpL16-k0 (antibody, human IgG1, kappa)
heavy: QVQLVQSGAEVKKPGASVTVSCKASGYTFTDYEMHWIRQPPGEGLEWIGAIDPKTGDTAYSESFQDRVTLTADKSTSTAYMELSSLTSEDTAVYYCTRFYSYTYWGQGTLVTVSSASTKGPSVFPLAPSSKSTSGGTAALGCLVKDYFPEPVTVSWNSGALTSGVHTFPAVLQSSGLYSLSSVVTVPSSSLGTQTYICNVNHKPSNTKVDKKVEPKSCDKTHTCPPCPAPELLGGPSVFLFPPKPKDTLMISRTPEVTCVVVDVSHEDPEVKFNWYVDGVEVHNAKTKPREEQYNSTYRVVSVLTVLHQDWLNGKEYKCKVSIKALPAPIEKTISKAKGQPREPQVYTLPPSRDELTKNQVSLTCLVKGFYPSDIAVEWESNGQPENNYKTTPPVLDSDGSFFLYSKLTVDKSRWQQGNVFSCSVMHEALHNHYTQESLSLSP
light: B9 light
notes: also called B3 variant N325I
[9]
  Binding to human FcgRs (parent B3 = 100): 76
[10]
  Binding to human FcgRs (parent B3 = 100): 1

B11: GpH7-B3 P238M / GpL16-k0 (antibody, human IgG1, kappa)
heavy: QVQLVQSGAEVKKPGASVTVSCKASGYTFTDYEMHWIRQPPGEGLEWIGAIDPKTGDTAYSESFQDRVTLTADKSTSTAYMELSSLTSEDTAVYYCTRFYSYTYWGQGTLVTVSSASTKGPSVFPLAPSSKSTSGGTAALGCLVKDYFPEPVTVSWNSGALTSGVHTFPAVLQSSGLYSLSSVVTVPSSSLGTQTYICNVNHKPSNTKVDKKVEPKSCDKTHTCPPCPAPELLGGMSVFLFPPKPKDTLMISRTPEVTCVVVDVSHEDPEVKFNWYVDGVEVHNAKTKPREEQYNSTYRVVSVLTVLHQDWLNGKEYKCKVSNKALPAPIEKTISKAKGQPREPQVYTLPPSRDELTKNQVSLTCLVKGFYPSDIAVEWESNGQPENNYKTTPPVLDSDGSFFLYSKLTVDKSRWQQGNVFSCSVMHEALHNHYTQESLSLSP
light: B9 light
notes: also called B3 variant P238M
[9]
  Binding to human FcgRs (parent B3 = 100): 86
[10]
  Binding to human FcgRs (parent B3 = 100): 2

Reference: patent publication US20250076311A1 (Chugai, published 2025)
